Values quoted from earlier work in article PMC4278352.

Molecular target: PikAIII docking domain (Streptomyces venezuelae) (UniProt Q9ZGI3)
Sequence of UniProt Q9ZGI3 (Q9ZGI3 1-34): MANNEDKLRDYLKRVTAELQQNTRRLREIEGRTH

Substance: PikAII docking domain (from UniProt Q9ZGI4)
- Kd: 5 µM
